The RNAGym collection of RNA variant scans (doi:10.7554/elife.90254)

B1: LINE1-mini (parent)
chain: GGCAGAGCUCAACACAGCGUGGCAAAGUGGCUGUGGCUAGACUGCC

Variants of: B1
Assay: self-cleavage, relative activity (ratio to wild type); higher = more cleavage; in vitro, sequencing; the parent is a self-cleaving ribozyme

Variant | self-cleavage
GGCAGAACUCAACACAGCGUGGCAAAGUGGCUGUGACUAGACUGCC [G7A G36A] | 0.43
GGCAGAACUCAACACAGCGUGGCAAAGUGGCUGUGCCUAGACUGCC [G7A G36C] | 0.27
GGCAGAACUCAACACAGCGUGGCAAAGUGGCUGUGUCUAGACUGCC [G7A G36U] | 0.12
GGCAGACCUCAACACAGCGUGGCAAAGUGGCUGUGGGUAGACUGCC [G7C C37G] | 0.03
GGCAGACCUCAACACAGCGUGGCAAAGUGGCUGUGGAUAGACUGCC [G7C C37A] | 0.09
GGCAGACCUCAACACAGCGUGGCAAAGUGGCUGUGGUUAGACUGCC [G7C C37U] | 0.13
GGCAGAACUCAACACAGCGUGGCAAAGUGGCUGUGGCUAGACAGCC [G7A U43A] | 0.15
GGCAGAACUCAACACAGCGUGGCAAAGUGGCUGUGGCUAGACGGCC [G7A U43G] | 0.57
GGCAGAACUCAACACAGCGUGGCAAAGUGGCUGUGGCUAGACCGCC [G7A U43C] | 0.25
GGCAGACCUCGACACAGCGUGGCAAAGUGGCUGUGGCUAGACUGCC [G7C A11G] | 0.03
GGCAGACCUCUACACAGCGUGGCAAAGUGGCUGUGGCUAGACUGCC [G7C A11U] | 0.04
GGCAGACCUCCACACAGCGUGGCAAAGUGGCUGUGGCUAGACUGCC [G7C A11C] | 0.04
GGCAGAACUCAACACAGCGGGGCAAAGUGGCUGUGGCUAGACUGCC [G7A U20G] | 0.06
GGCAGAACUCAACACAGCGCGGCAAAGUGGCUGUGGCUAGACUGCC [G7A U20C] | 0.07
GGCAGAACUCAACACAGCGAGGCAAAGUGGCUGUGGCUAGACUGCC [G7A U20A] | 0.12
GGCAGACCUCAACACAGCGUGGCCAAGUGGCUGUGGCUAGACUGCC [G7C A24C] | 0.09
GGCAGACCUCAACACAGCGUGGCUAAGUGGCUGUGGCUAGACUGCC [G7C A24U] | 0.19
GGCAGACCUCAACACAGCGUGGCGAAGUGGCUGUGGCUAGACUGCC [G7C A24G] | 0.12
GGCAGAACUCAACACAGCGUGGCAAAGUGGCUGUGGCUAGACUACC [G7A G44A] | 0.19
GGCAGAACUCAACACAGCGUGGCAAAGUGGCUGUGGCUAGACUCCC [G7A G44C] | 0.28
GGCAGAACUCAACACAGCGUGGCAAAGUGGCUGUGGCUAGACUUCC [G7A G44U] | 0.18
GGCAGACCUCAACACAGCGUGGCAAAGUGGCUGUGGCUAGACUGCG [G7C C46G] | 0.08
GGCAGACCUCAACACAGCGUGGCAAAGUGGCUGUGGCUAGACUGCU [G7C C46U] | 0.08

Variant | self-cleavage
GGCAGACCUCAACACAGCGUGGCAAAGUGGCUGUGGCUAGACUGCA [G7C C46A] | 0.18
GGCAGACCUCAACACACCGUGGCAAAGUGGCUGUGGCUAGACUGCC [G7C G17C] | 0.1
GGCAGACCUCAACACAUCGUGGCAAAGUGGCUGUGGCUAGACUGCC [G7C G17U] | 0.09
GGCAGACCUCAACACAACGUGGCAAAGUGGCUGUGGCUAGACUGCC [G7C G17A] | 0.07
GGCAGACCUCAACACAGCGUGGCAAAGUGGCUGUGGCUAGACUGGC [G7C C45G] | 0.11
GGCAGACCUCAACACAGCGUGGCAAAGUGGCUGUGGCUAGACUGAC [G7C C45A] | 0.1
GGCAGACCUCAACACAGCGUGGCAAAGUGGCUGUGGCUAGACUGUC [G7C C45U] | 0.16
GGCAGACCUCAACACAGCAUGGCAAAGUGGCUGUGGCUAGACUGCC [G7C G19A] | 0.14
GGCAGACCUCAACACAGCUUGGCAAAGUGGCUGUGGCUAGACUGCC [G7C G19U] | 0.07
GGCAGACCUCAACACAGCCUGGCAAAGUGGCUGUGGCUAGACUGCC [G7C G19C] | 0.05
GGCAGACCUCAACACAGCGUGGCAAAAUGGCUGUGGCUAGACUGCC [G7C G27A] | 0.09
GGCAGACCUCAACACAGCGUGGCAAAUUGGCUGUGGCUAGACUGCC [G7C G27U] | 0.11
GGCAGACCUCAACACAGCGUGGCAAACUGGCUGUGGCUAGACUGCC [G7C G27C] | 0.06
GGCAGACCUCAAAACAGCGUGGCAAAGUGGCUGUGGCUAGACUGCC [G7C C13A] | 0.11
GGCAGACCUCAAUACAGCGUGGCAAAGUGGCUGUGGCUAGACUGCC [G7C C13U] | 0.14
GGCAGACCUCAAGACAGCGUGGCAAAGUGGCUGUGGCUAGACUGCC [G7C C13G] | 0.18
GGCAGAACUCAACACAGCGUGGCAAAGUGGCUGUGGCAAGACUGCC [G7A U38A] | 0.09
GGCAGAACUCAACACAGCGUGGCAAAGUGGCUGUGGCCAGACUGCC [G7A U38C] | 0.1
GGCAGAACUCAACACAGCGUGGCAAAGUGGCUGUGGCGAGACUGCC [G7A U38G] | 0.02
GGCAGACCUCAACACAGUGUGGCAAAGUGGCUGUGGCUAGACUGCC [G7C C18U] | 0.19
GGCAGACCUCAACACAGAGUGGCAAAGUGGCUGUGGCUAGACUGCC [G7C C18A] | 0.12
GGCAGACCUCAACACAGGGUGGCAAAGUGGCUGUGGCUAGACUGCC [G7C C18G] | 0.09
GGCAGAACUCAACACAGCGUGGCAAAGUGGCCGUGGCUAGACUGCC [G7A U32C] | 0.17

Variant | self-cleavage
GGCAGAACUCAACACAGCGUGGCAAAGUGGCGGUGGCUAGACUGCC [G7A U32G] | 0.11
GGCAGAACUCAACACAGCGUGGCAAAGUGGCAGUGGCUAGACUGCC [G7A U32A] | 0.13
GGCAGACGUCAACACAGCGUGGCAAAGUGGCUGUGGCUAGACUGCC [G7C C8G] | 0.29
GGCAGACUUCAACACAGCGUGGCAAAGUGGCUGUGGCUAGACUGCC [G7C C8U] | 0.2
GGCAGACAUCAACACAGCGUGGCAAAGUGGCUGUGGCUAGACUGCC [G7C C8A] | 0.32
GGCAGACCUCAACACUGCGUGGCAAAGUGGCUGUGGCUAGACUGCC [G7C A16U] | 0.3
GGCAGACCUCAACACCGCGUGGCAAAGUGGCUGUGGCUAGACUGCC [G7C A16C] | 0.11
GGCAGACCUCAACACGGCGUGGCAAAGUGGCUGUGGCUAGACUGCC [G7C A16G] | 0.06
GGCAGACCUCAACCCAGCGUGGCAAAGUGGCUGUGGCUAGACUGCC [G7C A14C] | 0.23
GGCAGACCUCAACGCAGCGUGGCAAAGUGGCUGUGGCUAGACUGCC [G7C A14G] | 0.08
GGCAGACCUCAACUCAGCGUGGCAAAGUGGCUGUGGCUAGACUGCC [G7C A14U] | 0.15
GGCAGACCUCAACACAGCGUGGCAAAGUGGGUGUGGCUAGACUGCC [G7C C31G] | 0.06
GGCAGACCUCAACACAGCGUGGCAAAGUGGUUGUGGCUAGACUGCC [G7C C31U] | 0.05
GGCAGACCUCAACACAGCGUGGCAAAGUGGAUGUGGCUAGACUGCC [G7C C31A] | 0.09
GGCAGACCUCAACACAGCGUGGCAAAGUGGCUGUGGCUAGACUGCC [G7C] | 0.13
GGCAGACCUCAACACAGCGUGGCAGAGUGGCUGUGGCUAGACUGCC [G7C A25G] | 0.06
GGCAGACCUCAACACAGCGUGGCAUAGUGGCUGUGGCUAGACUGCC [G7C A25U] | 0.16
GGCAGACCUCAACACAGCGUGGCACAGUGGCUGUGGCUAGACUGCC [G7C A25C] | 0.14
GGCAGACCUCAACACAGCGUGGCAAAGUGUCUGUGGCUAGACUGCC [G7C G30U] | 0.1
GGCAGACCUCAACACAGCGUGGCAAAGUGACUGUGGCUAGACUGCC [G7C G30A] | 0.13
GGCAGACCUCAACACAGCGUGGCAAAGUGCCUGUGGCUAGACUGCC [G7C G30C] | 0.13
GGCAGAACCCAACACAGCGUGGCAAAGUGGCUGUGGCUAGACUGCC [G7A U9C] | 0.04
GGCAGAACACAACACAGCGUGGCAAAGUGGCUGUGGCUAGACUGCC [G7A U9A] | 0.3

Variant | self-cleavage
GGCAGAACGCAACACAGCGUGGCAAAGUGGCUGUGGCUAGACUGCC [G7A U9G] | 0.08
GGCAGAACUCAACACAGCGUGGCAAAGUGGCUGGGGCUAGACUGCC [G7A U34G] | 0.14
GGCAGAACUCAACACAGCGUGGCAAAGUGGCUGCGGCUAGACUGCC [G7A U34C] | 0.09
GGCAGAACUCAACACAGCGUGGCAAAGUGGCUGAGGCUAGACUGCC [G7A U34A] | 0.1
GGCAGACCUCACCACAGCGUGGCAAAGUGGCUGUGGCUAGACUGCC [G7C A12C] | 0.03
GGCAGACCUCAGCACAGCGUGGCAAAGUGGCUGUGGCUAGACUGCC [G7C A12G] | 0.06
GGCAGACCUCAUCACAGCGUGGCAAAGUGGCUGUGGCUAGACUGCC [G7C A12U] | 0.07
GGCAGACCUCAACACAGCGUGGCAAGGUGGCUGUGGCUAGACUGCC [G7C A26G] | 0.11
GGCAGACCUCAACACAGCGUGGCAAUGUGGCUGUGGCUAGACUGCC [G7C A26U] | 0.15
GGCAGACCUCAACACAGCGUGGCAACGUGGCUGUGGCUAGACUGCC [G7C A26C] | 0.6
GGCAGACCUCAACACAGCGUUGCAAAGUGGCUGUGGCUAGACUGCC [G7C G21U] | 0.08
GGCAGACCUCAACACAGCGUAGCAAAGUGGCUGUGGCUAGACUGCC [G7C G21A] | 0.2
GGCAGACCUCAACACAGCGUCGCAAAGUGGCUGUGGCUAGACUGCC [G7C G21C] | 0.08
GGCAGACCUUAACACAGCGUGGCAAAGUGGCUGUGGCUAGACUGCC [G7C C10U] | 0.04
GGCAGACCUAAACACAGCGUGGCAAAGUGGCUGUGGCUAGACUGCC [G7C C10A] | 0.04
GGCAGACCUGAACACAGCGUGGCAAAGUGGCUGUGGCUAGACUGCC [G7C C10G] | 0.03
GGCAGAACUCAACACAGCGUGGCAAAGAGGCUGUGGCUAGACUGCC [G7A U28A] | 0.16
GGCAGAACUCAACACAGCGUGGCAAAGGGGCUGUGGCUAGACUGCC [G7A U28G] | 0.16
GGCAGAACUCAACACAGCGUGGCAAAGCGGCUGUGGCUAGACUGCC [G7A U28C] | 0.11
GGCAGACCUCAACACAGCGUGGCAAAGUGGCUGUGGCUAGAUUGCC [G7C C42U] | 0.09
GGCAGACCUCAACACAGCGUGGCAAAGUGGCUGUGGCUAGAGUGCC [G7C C42G] | 0.1
GGCAGACCUCAACACAGCGUGGCAAAGUGGCUGUGGCUAGAAUGCC [G7C C42A] | 0.08
GGCAGACCUCAACACAGCGUGGCAAAGUGGCUGUGGCUUGACUGCC [G7C A39U] | 0.15

Variant | self-cleavage
GGCAGACCUCAACACAGCGUGGCAAAGUGGCUGUGGCUCGACUGCC [G7C A39C] | 0.21
GGCAGACCUCAACACAGCGUGGCAAAGUGGCUGUGGCUGGACUGCC [G7C A39G] | 0.08
GGCAGACCUCAACACAGCGUGGCAAAGUUGCUGUGGCUAGACUGCC [G7C G29U] | 0.13
GGCAGACCUCAACACAGCGUGGCAAAGUCGCUGUGGCUAGACUGCC [G7C G29C] | 0.05
GGCAGACCUCAACACAGCGUGGCAAAGUAGCUGUGGCUAGACUGCC [G7C G29A] | 0.13
GGCAGACCUCAACAUAGCGUGGCAAAGUGGCUGUGGCUAGACUGCC [G7C C15U] | 0.14
GGCAGACCUCAACAGAGCGUGGCAAAGUGGCUGUGGCUAGACUGCC [G7C C15G] | 0.08
GGCAGACCUCAACAAAGCGUGGCAAAGUGGCUGUGGCUAGACUGCC [G7C C15A] | 0.14
GGCAGACCUCAACACAGCGUGGAAAAGUGGCUGUGGCUAGACUGCC [G7C C23A] | 0.09
GGCAGACCUCAACACAGCGUGGUAAAGUGGCUGUGGCUAGACUGCC [G7C C23U] | 0.1
GGCAGACCUCAACACAGCGUGGGAAAGUGGCUGUGGCUAGACUGCC [G7C C23G] | 0.1
GGCAGAACUCAACACAGCGUGGCAAAGUGGCUGUGGCUACACUGCC [G7A G40C] | 0.1
GGCAGAACUCAACACAGCGUGGCAAAGUGGCUGUGGCUAAACUGCC [G7A G40A] | 0.19
GGCAGAACUCAACACAGCGUGGCAAAGUGGCUGUGGCUAUACUGCC [G7A G40U] | 0.27
GGCAGACCUCAACACAGCGUGGCAAAGUGGCUGUGGCUAGGCUGCC [G7C A41G] | 0.04
GGCAGACCUCAACACAGCGUGGCAAAGUGGCUGUGGCUAGCCUGCC [G7C A41C] | 0.09
GGCAGACCUCAACACAGCGUGGCAAAGUGGCUGUGGCUAGUCUGCC [G7C A41U] | 0.21
GGCAGACCUCAACACAGCGUGACAAAGUGGCUGUGGCUAGACUGCC [G7C G22A] | 0.11
GGCAGACCUCAACACAGCGUGCCAAAGUGGCUGUGGCUAGACUGCC [G7C G22C] | 0.08
GGCAGACCUCAACACAGCGUGUCAAAGUGGCUGUGGCUAGACUGCC [G7C G22U] | 0.12
